B1: RHOBTB2 (parent)
chain: HHHHGRDFLLRAASFDVCESVDEA

Variants of: B1
Experiment: protein stability index of a GFP-peptide fusion (GPS, HEK-293T) (PSI 1-6); higher = more stable
Settings: c terminus: a fixed tail appended
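Further: lentivirally expressed fusions sorted by FACS into six bins by GFP to DsRed ratio, PSI derived from sequencing read proportions per bin multiplied by bin number.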

Protein stability index of substitutions, site by site:
R11: H 4.06; N 3.87; G 4.43; M 2.38; V 2.85; T 3.72; P 4.26; E 5.3; F 1.67; C 2.63; I 2.41; K 4.17; W 1.44; D 5.18; Q 3.94; L 2.35; A 3.29; S 3.85; Y 2.39
V17: W 3; T 3.53; S 4.11; A 4.04; C 4.17; E 4.56; H 3.55; D 4.54; Q 4.24; L 3.2; P 4.7; F 3.12; I 3.37; N 4; R 3.52; K 3.94; Y 4.16; G 3.99; M 3.68
D16: K 2.79; S 3.17; G 3.06; N 3.31; A 3.37; R 2.48; L 2.11; H 2.84; F 1.89; P 3.19; C 1.97; Y 1.67; E 3.74; I 2.14; M 2.44; V 2.33; Q 3.5; T 3.36
D7: T 2.92; R 3.16; N 3.25; V 2.87; I 1.99; G 3.34; K 3.85; Q 3.18; L 1.82; S 3.17; F 2.06; E 3.8; C 1.92; P 3.31; H 2.34; M 1.79; W 2.29; Y 2.04; A 2.97
F8: C 4.74; N 5.33; R 4.74; D 5.15; A 5.04; E 4.89; I 4.19; Y 3.57; K 4.61; G 4.74; V 4.66; S 4.37; L 4.45; W 3.28; M 4.86; H 5.06; T 4.28; P 5.21; Q 5.04
H4: K 3.25; S 4.15; I 3.83; M 3.61; P 4.59; W 2.31; T 3.94; V 4.02; E 3.96; R 3.62; A 3.67; L 3.65; Y 3.3; Q 4.11; G 3.73; N 4.15; F 3.38; C 2.67; D 4.12
A13: S 3.96; Q 3.84; R 3.73; H 3.75; C 1.87; T 3.49; I 3.12; K 4.09; D 4.51; N 4.38; G 4.33; M 2.49; Y 2.87; V 3.14; W 2.45; F 1.92; E 4.38; L 3.2; P 4.66
L10: F 2.96; N 5.01; C 4.2; Q 4.86; P 4.18; T 4.8; A 3.94; Y 3.9; I 4.21; D 5.17; S 3.81; V 4.06; H 4.69; R 4.55; G 4.29; E 5.02; K 4.09; W 2.34; M 3.64
H2: T 1.8; D 4.67; V 3.46; C 3.43; P 4.49; L 3.93; W 3.35; Y 4.16; Q 4.04; S 2.62; K 4.67; F 3.69; R 3.9; N 4.52; A 4.04; M 3.96; E 4.75; G 3.72; I 3.92
E19: I 2.17; H 2.9; D 3.72; K 3; G 3.07; F 2.22; L 1.56; C 2.42; A 2.9
H3: I 3.52; Q 3.87; C 2.92; F 3.33; T 3.58; L 3.62; V 3.65; D 4.67; A 3.58; M 3.4; K 3.04; N 4.44; R 2.76; S 3.83; P 3.56; E 4.71; G 3.9; W 2.43; Y 3.51
R6: W 2.55; K 4.5; T 4.2; I 2.12; Q 4.37; C 3.51; M 3.49; P 4.19; G 4.7; F 2.8; S 3.85; D 4.61; A 4.33; L 3.81; Y 3; V 2.63; N 4.59; E 5.07; H 4.41
S14: Q 4.17; M 3.05; T 3.47; D 4.13; I 2.73; Y 2.79; R 2.62; W 2.66; H 3.57; F 3.03; N 4.5; E 3.89; P 4.22; G 3.15; A 3.55; L 2.88; V 2.84; C 3.36; K 3.17
C18: P 4.42; I 3.57; Y 2.82; E 4.77; N 4.21; L 2.9; H 3.4; D 4.75; A 3.96; Q 4.03; T 3.7; M 3.37; F 3.54; K 3.94; V 3.95; W 2.48; R 3.65; S 4.06; G 4.24
H1: T 4.59; Y 3.84; W 3.36; V 3.21
F15: I 3.94; Y 3.92; R 4.88; Q 4.1; C 4.57; S 4.76; T 4.74; L 3.24; E 4.86; W 3.94; D 5.01; A 4.78; G 4.38; H 4.11; V 4.33; N 4.35; M 4.74; K 4.58; P 4.37
A12: D 4.55; F 1.92; T 1.66; P 4.52; K 4.26; W 2.67; H 2.94; Y 2.08; E 5.13; Q 3.73; V 3.03; N 3.82; S 3.29; C 2.4; L 3.14; I 2.54; R 4.37; M 2.96; G 4.25
G5: Y 2.33; E 4.42; T 4.15; F 1.6; I 3.27; L 2.6; M 3.42; Q 4.21; C 2.63; S 4.61; N 3.95; R 4.3; H 4.34; V 3.37; P 4.44; D 4.86; W 2.21; A 3.83; K 4.2
L9: Y 3.54; M 4.41; D 5.28; I 4.06; V 4.33; T 4.53; N 5.06; Q 5.09; E 4.89; K 4.35; H 5.1; P 4.81; A 4.98; R 4.3; G 4.6; S 4.03; C 4.48; F 3.2
